Source: paper PMC13486704 (2026)

Assays:
[1] = biological target: HCMV protease (Human cytomegalovirus) (UniProt P16753); conditions: cited from earlier work
[2] = biological target: the molecule itself

## HCMV protease (from UniProt P16753)
[1]
  Kd: 5.8 µM

B1: HCMV protease (protein)
chain: MTMDEQQSQAVAPVYVGGFLARYDQSPDEAELLLPRDVVEHWLHAQGQGQPSLSVALPLNINHDDTAVVGHVAAMQSVRDGLFCLGCVTSPRFLEIVRRASEKSELVSRGPVSPLQPDKVVEFLSGSYAGLSLSSRRCDDVEAATSLSGSETTPFKHVALCSVGRRRGTLAVYGRDPEWVTQRFPDLTAADRDGLRAQWQRCGSTAVDASGDPFRSDSYGLLGNSVDALYIRERLPKLRYDKQLVGVTERESYVKA
[2]
  Kd: ~70 µM
